# Tests used:
# [1] = biological target: gp120 (HT593) expressed on human embryonic kidney (HEK) cells (HIV-1); assay: cell-based or functional assay
# [2] = biological target: HIV-1 Env (gp120) of virus 7576 (HIV-1); assay: cell-based or functional assay
# [3] = biological target: HIV-1 Env (gp120) of virus 7406 (HIV-1); assay: cell-based or functional assay
# [4] = biological target: HIV-1 Env (gp120) of virus 8106 (HIV-1); assay: cell-based or functional assay
# [5] = biological target: HIV-1 Env (gp120) of virus 7467 (HIV-1); assay: cell-based or functional assay
# [6] = biological target: HIV-1 Env (gp120) of virus BaL (HIV-1); assay: cell-based or functional assay
# [7] = biological target: HIV-1 Env (gp120) of virus 1489 (HIV-1); assay: cell-based or functional assay
# [8] = biological target: HIV-1 Env (gp120) of virus 7051 (HIV-1); assay: cell-based or functional assay
# [9] = biological target: HIV-1 Env (gp120) of virus 657 (HIV-1); assay: cell-based or functional assay
# [10] = biological target: HIV-1 Env (gp120) of virus 7552 (HIV-1); assay: cell-based or functional assay
# [11] = biological target: HIV-1 Env (gp120) of virus 7015 (HIV-1); assay: cell-based or functional assay
# [12] = biological target: HIV-1 Env (gp120) of virus 712 (HIV-1); assay: cell-based or functional assay
# [13] = biological target: HIV-1 Env (gp120) of virus 8339 (HIV-1); assay: cell-based or functional assay
# [14] = biological target: HIV-1 Env (gp120) of virus REJO (HIV-1); assay: cell-based or functional assay
# [15] = biological target: HIV-1 Env (gp120) of virus 8398 (HIV-1); assay: cell-based or functional assay
# [16] = biological target: HIV-1 Env (gp120) of virus CH058 (HIV-1); assay: cell-based or functional assay
# [17] = biological target: HIV-1 Env (gp120) of virus 8176 (HIV-1); assay: cell-based or functional assay
# [18] = biological target: HIV-1 Env (gp120) of virus 727 (HIV-1); assay: cell-based or functional assay
# [19] = biological target: HIV-1 Env (gp120) of virus 8320 (HIV-1); assay: cell-based or functional assay
# [20] = biological target: HIV-1 Env (gp120) of virus WITO (HIV-1 (clone WITO)); assay: cell-based or functional assay
# [21] = biological target: HIV-1 Env (gp120) of virus 593 (HIV-1); assay: cell-based or functional assay
# [22] = biological target: HIV-1 Env (gp120) of virus CH106 (HIV-1); assay: cell-based or functional assay
# [23] = biological target: HIV-1 Env (gp120) of virus 8089 (HIV-1); assay: cell-based or functional assay
# [24] = biological target: T1, Human FcRn (human, UniProt P55899 24-297; P61769 21-119); assay: ELISA, FcRn coated on plate, pH 6.0
# T1 construct: also called neonatal Fc receptor
# Protocol: (§1) The binding of antibodies to FcRn of various antibody variants at different pHs was determined. A 96-well Maxisorp plate was coated with 100 ul of 5 μg/ml FcRn. The plate was incubated overnight at 4° C., and then blocked with 4% skim milk for 2 hr at room temperature after washing 3 times with 0.05% Tween 20 washing buffer. […] The plate was then washed 3 times and 100 μL of Fab-anti-human Fab-HRP or Goat anti-human IgG-HRP secondary antibody diluted in 4% skimmed milk was added. Plates were then incubated 50 min at room temperature, washed three times, and 100 μL fresh TMB substrate was added. Plates were developed for 3 minutes on bench with gentle shaking. Plate was quenched with 100 μL 1M HCl, shaken briefly, read at A450 on a spectramax m5 plate reader.
# [25] = biological target: T1, Human FcRn; assay: ELISA, FcRn coated on plate; pH 7.0/6.0 ratio against that of PGT121
# Protocol: as §1
# [26] = biological target: T1, Human FcRn; assay: ELISA, FcRn coated on plate, pH 7.0
# Protocol: as §1
# [27] = biological target: HIV-1 Env of virus MGRM-F1-004 (HIV-1); assay: cell-based or functional assay
# [28] = biological target: HIV-1 Env of virus MGRM-Chronic-B-020 (HIV-1); assay: cell-based or functional assay
# [29] = biological target: HIV-1 Env of virus MGRM-C-007 (HIV-1); assay: cell-based or functional assay
# [30] = biological target: HIV-1 Env of virus MGRM-A-014 (HIV-1); assay: cell-based or functional assay
# [31] = biological target: HIV-1 Env of virus MGRM-AG-007 (HIV-1); assay: cell-based or functional assay
# [32] = biological target: HIV-1 Env of virus MGRM-A-003 (HIV-1); assay: cell-based or functional assay
# [33] = biological target: HIV-1 Env of virus MGRM-Acute-B-009 (HIV-1); assay: cell-based or functional assay
# [34] = biological target: HIV-1 Env of virus MGRM-Chronic-B-002 (HIV-1); assay: cell-based or functional assay
# [35] = biological target: T1, Human FcRn; assay: ELISA, FcRn coated on plate; ratio of EC50 at pH 7.0 to pH 6.0
# Protocol: as §1
# T1 sequence (P55899 24-297 limits assumed, chain 1 of 2): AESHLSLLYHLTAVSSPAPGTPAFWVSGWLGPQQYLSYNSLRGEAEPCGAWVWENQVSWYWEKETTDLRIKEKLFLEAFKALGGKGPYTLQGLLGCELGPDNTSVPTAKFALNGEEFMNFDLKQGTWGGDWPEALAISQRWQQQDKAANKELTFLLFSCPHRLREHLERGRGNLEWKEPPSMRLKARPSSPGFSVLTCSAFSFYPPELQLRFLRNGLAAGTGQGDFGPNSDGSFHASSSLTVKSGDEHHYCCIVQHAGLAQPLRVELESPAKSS
# T1 sequence (P61769 21-119 limits assumed, chain 2 of 2): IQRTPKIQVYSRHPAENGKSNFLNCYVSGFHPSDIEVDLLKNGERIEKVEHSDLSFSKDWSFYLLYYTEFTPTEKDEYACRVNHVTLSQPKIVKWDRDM
binder,measurement,setting,value
PGT121.60 hIgG1/hLambda (antibody) heavy: QMQLQESGPGLVKPSETLSLTCSVSGASISDSYWSWIRRSPGKGLEWIGYVHKSGDTNYNPSLKSRVHLSLDTSKNQVSLSLTGVTAADSGKYYCARTLHGRRIYGIVAFNEWFTYFYMDVWGTGTQVTVSSASTKGPSVFPLAPSSKSTSGGTAALGCLVKDYFPEPVTVSWNSGALTSGVHTFPAVLQSSGLYSLSSVVTVPSSSLGTQTYICNVNHKPSNTKVDKKVEPKSCDKTHTCPPCPAPELLAGPDVFLFPPKPKDTLMISRTPEVTCVVVDVSHEDPEVKFNWYVDGVEVHNAKTKPREEQYNSTYRVVSVLTVLHQDWLNGKEYKCKVSNKALPLPEEKTISKAKGQPREPQVYTLPPSREEMTKNQVSLTCLVKGFYPSDIAVEWESNGQPENNYKTTPPVLDSDGSFFLYSKLTVDKSRWQQGNVFSCSVLHEALHSHYTQKSLSLSPGK light: not shown,"% ADCC Activity (ADCC reporter cell based assay; sample stressed at 25° C. for 4 weeks, relative to its untreated control)",[1],65%
same,"EC50 (µg/mL), killing of HIV-infected cells (Mean)",[2],0.016 µg/mL
same,"Emax, killing of HIV-infected cells (Mean)",[2],71%
same,"EC50 (µg/mL), killing of HIV-infected cells (Mean)",[3],0.09 µg/mL
same,"Emax, killing of HIV-infected cells (Mean)",[3],63%
same,"EC50 (µg/mL), killing of HIV-infected cells (Mean)",[4],0.11 µg/mL
same,"Emax, killing of HIV-infected cells (Mean)",[4],75%
same,"EC50 (µg/mL), killing of HIV-infected cells (Mean)",[5],0.139 µg/mL
same,"Emax, killing of HIV-infected cells (Mean)",[5],54%
same,"EC50 (µg/mL), killing of HIV-infected cells (Mean)",[6],0.048 µg/mL
same,"Emax, killing of HIV-infected cells (Mean)",[6],73%
same,"EC50 (µg/mL), killing of HIV-infected cells (Mean)",[7],0.276 µg/mL
same,"Emax, killing of HIV-infected cells (Mean)",[7],70%
same,"EC50 (µg/mL), killing of HIV-infected cells (Mean)",[8],0.394 µg/mL
same,"Emax, killing of HIV-infected cells (Mean)",[8],49%
same,"EC50 (µg/mL), killing of HIV-infected cells (Mean)",[9],1.44 µg/mL
same,"Emax, killing of HIV-infected cells (Mean)",[9],62%
same,"EC50 (µg/mL), killing of HIV-infected cells (Mean)",[10],0.011 µg/mL
same,"Emax, killing of HIV-infected cells (Mean)",[10],66%
same,"EC50 (µg/mL), killing of HIV-infected cells (Mean)",[11],0.516 µg/mL
same,"Emax, killing of HIV-infected cells (Mean)",[11],55%
same,"EC50 (µg/mL), killing of HIV-infected cells (Mean)",[12],0.084 µg/mL
same,"Emax, killing of HIV-infected cells (Mean)",[12],71%
same,"EC50 (µg/mL), killing of HIV-infected cells (Mean)",[13],3.81 µg/mL
same,"Emax, killing of HIV-infected cells (Mean)",[13],13%
same,"EC50 (µg/mL), killing of HIV-infected cells (Mean)",[14],2.6 µg/mL
same,"Emax, killing of HIV-infected cells (Mean)",[14],0%
same,"EC50 (µg/mL), killing of HIV-infected cells (Mean)",[15],0.067 µg/mL
same,"Emax, killing of HIV-infected cells (Mean)",[15],76%
same,"EC50 (µg/mL), killing of HIV-infected cells (Mean)",[16],0.16 µg/mL
same,"Emax, killing of HIV-infected cells (Mean)",[16],71%
same,"EC50 (µg/mL), killing of HIV-infected cells (Mean)",[17],1.01 µg/mL
same,"Emax, killing of HIV-infected cells (Mean)",[17],56%
same,"EC50 (µg/mL), killing of HIV-infected cells (Mean)",[18],0.034 µg/mL
same,"Emax, killing of HIV-infected cells (Mean)",[18],66%
same,"EC50 (µg/mL), killing of HIV-infected cells (Mean)",[19],2.12 µg/mL
same,"Emax, killing of HIV-infected cells (Mean)",[19],0%
same,"EC50 (µg/mL), killing of HIV-infected cells (Mean)",[20],2.52 µg/mL
same,"Emax, killing of HIV-infected cells (Mean)",[20],71%
same,"EC50 (µg/mL), killing of HIV-infected cells (Mean)",[21],0.912 µg/mL
same,"Emax, killing of HIV-infected cells (Mean)",[21],56%
same,"EC50 (µg/mL), killing of HIV-infected cells (Mean)",[22],6.17 µg/mL
same,"Emax, killing of HIV-infected cells (Mean)",[22],46%
same,"EC50 (µg/mL), killing of HIV-infected cells (Mean)",[23],0.226 µg/mL
same,"Emax, killing of HIV-infected cells (Mean)",[23],64%
same,EC50,[24],0.22 nM
same,Fold vs PGT121,[25],11 fold
same,EC50,[26],78 nM
same,PGT121.60 IC50,[27],0.547 µg/mL
same,PGT121.60 IC50,[28],0.0018 µg/mL
same,PGT121.60 IC50,[29],0.199 µg/mL
same,PGT121.60 IC50,[30],0.001 µg/mL
same,PGT121.60 IC50,[31],0.108 µg/mL
same,PGT121.60 IC50,[32],0.0865 µg/mL
same,PGT121.60 IC50,[33],0.0016 µg/mL
same,PGT121.60 IC50,[34],0.0649 µg/mL
same,Ratio pH 7.0/6.0,[35],355

# From patent US20180371086A1 (Gilead, published 2018)
